Each block holds one binder with its values, some of them ahead of it.
Tests used:
Symplekin = molecular target: T1, Symplekin (human, UniProt Q92797 1-1274); assay: FLAG affinity purification from HEK 293 cells, western blot
T1 sequence (looked up): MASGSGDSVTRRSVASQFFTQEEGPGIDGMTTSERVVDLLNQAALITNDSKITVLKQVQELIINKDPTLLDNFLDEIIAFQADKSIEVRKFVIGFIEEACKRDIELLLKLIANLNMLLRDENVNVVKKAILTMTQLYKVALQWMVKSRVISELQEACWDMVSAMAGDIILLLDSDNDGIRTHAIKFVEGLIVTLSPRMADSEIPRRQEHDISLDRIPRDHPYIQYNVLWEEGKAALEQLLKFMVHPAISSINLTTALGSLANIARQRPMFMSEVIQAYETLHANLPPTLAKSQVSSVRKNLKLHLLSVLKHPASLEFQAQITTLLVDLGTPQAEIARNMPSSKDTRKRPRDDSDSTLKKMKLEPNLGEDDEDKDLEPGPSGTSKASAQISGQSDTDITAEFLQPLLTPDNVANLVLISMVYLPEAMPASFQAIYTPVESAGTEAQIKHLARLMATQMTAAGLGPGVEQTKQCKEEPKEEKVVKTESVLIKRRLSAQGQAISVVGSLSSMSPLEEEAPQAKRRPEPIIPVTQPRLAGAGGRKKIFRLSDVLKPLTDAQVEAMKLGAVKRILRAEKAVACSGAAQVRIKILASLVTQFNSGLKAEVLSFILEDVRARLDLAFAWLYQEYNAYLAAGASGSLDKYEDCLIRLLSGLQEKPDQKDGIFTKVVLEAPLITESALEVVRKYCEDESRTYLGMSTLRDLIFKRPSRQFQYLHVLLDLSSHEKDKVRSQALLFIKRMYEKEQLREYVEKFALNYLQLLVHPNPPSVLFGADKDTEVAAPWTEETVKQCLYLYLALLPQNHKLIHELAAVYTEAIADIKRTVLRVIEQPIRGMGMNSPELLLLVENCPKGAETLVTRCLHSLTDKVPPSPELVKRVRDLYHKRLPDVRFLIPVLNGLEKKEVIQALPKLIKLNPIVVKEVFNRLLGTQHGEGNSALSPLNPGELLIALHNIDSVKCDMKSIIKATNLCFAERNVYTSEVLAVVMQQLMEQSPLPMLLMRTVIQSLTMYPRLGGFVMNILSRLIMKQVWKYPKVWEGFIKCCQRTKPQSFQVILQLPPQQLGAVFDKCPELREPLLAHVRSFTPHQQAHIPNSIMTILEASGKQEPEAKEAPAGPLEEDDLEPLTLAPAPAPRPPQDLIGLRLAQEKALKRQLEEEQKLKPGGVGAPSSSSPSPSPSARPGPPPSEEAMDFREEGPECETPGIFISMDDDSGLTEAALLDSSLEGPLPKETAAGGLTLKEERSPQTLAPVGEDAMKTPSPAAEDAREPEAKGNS
Procedure: (§1) Affinity purification of Flag-Star-PAP and Flag-PAPα and their associated complex of proteins in parallel allowed a comparison of the complexes formed by Star-PAP and PAPα in more detail. Flag tagged Star-PAP and PAPα were purified from HEK 293 cells stably expressing Flag-Star-PAP or Flag-PAPα (following manufacturer's instructions; Sigma-Aldrich) and the presence of endogenous symplekin, CPSF¹⁰⁰, CPSF⁷³, CstF⁶⁴, RNA Pol II, Sm protein (Y12) and PIPKIα was assessed by western blotting. Like Flag-PAPα, Flag-Star-PAP associates with symplekin, CPSF¹⁰⁰ and CPSF⁷³, further confirmation that Star-PAP may function in an mRNA polyadenylation complex (FIG. 7). Also detected with both PAPs was a faster migrating form of RNA Pol II and Sm protein (Y-12), a component of the spliceosome, which is consistent with reports that the machinery for splicing and polyadenylation are coupled.

[1] = molecular target: T2, CPSF-100 (Cleavage and Polyadenylation Specificity Factor subunit 100) (human, UniProt Q9P2I0 1-782); assay: as above
T2 construct: also called SPSF-100
T2 sequence (looked up): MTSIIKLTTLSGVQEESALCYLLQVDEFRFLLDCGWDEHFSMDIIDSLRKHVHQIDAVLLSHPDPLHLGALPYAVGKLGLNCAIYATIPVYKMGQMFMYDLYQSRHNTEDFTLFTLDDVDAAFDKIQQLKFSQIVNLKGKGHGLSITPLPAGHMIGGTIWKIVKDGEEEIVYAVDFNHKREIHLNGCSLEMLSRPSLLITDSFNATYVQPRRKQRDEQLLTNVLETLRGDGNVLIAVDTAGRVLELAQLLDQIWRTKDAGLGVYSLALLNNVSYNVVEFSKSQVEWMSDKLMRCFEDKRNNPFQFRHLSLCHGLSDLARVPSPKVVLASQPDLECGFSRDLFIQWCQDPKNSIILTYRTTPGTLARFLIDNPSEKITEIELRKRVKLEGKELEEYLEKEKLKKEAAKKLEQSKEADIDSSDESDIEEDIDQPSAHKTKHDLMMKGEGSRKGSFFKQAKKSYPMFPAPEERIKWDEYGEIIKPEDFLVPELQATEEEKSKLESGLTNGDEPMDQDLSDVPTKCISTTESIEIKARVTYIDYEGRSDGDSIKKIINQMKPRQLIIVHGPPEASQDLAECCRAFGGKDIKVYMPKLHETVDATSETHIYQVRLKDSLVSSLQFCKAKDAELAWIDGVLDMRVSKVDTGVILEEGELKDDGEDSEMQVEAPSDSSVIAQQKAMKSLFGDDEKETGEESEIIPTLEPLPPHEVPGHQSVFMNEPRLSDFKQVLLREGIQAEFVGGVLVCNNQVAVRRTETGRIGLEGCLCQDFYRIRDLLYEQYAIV
Procedure: as §1

binding result (Symplekin): binds
B1: Flag-Star-PAP (full length) (enzyme)
chain: MAAVDSDVESLPRGGFRCCLCHVTTANRPSLDAHLGGRKHRHLVELRAARKAQGLRSVFVSGFPRGVDSAQLSEYFLAFGPVASVVMDKDKGVFAIVEMGDVGAREAVLSQSQHSLGGHRLRVRPREQKEFQSPASKSPKGAAPDSHQLAKALAEAADVGAQMIKLVGLRELSEAERQLRSLVVALMQEVFTEFFPGCVVHPFGSSINSFDVHGCDLDLFLDLGDLEEPQPVPKAPESPSLDSALASPLDPQALACTPASPPDSQPPASPQDSEALDFETPSSSLAPQTPDSALASETLASPQSLPPASPLLEDREEGDLGKASELAETPKEEKAEGAAMLELVGSILRGCVPGVYRVQTVPSARRPVVKFCHRPSGLHGDVSLSNRLALHNSRFLSLCSELDGRVRPLVYTLRCWAQGRGLSGSGPLLSNYALTLLVIYFLQTRDPPVLPTVSQLTQKAGEGEQVEVDGWDCSFPRDASRLEPSINVEPLSSLLAQFFSCVSCWDLRGSLLSLREGQALPVAGGLPSNLWEGLRLGPLNLQDPFDLSHNVAANVTSRVAGRLQNCCRAAANYCRSLQYQRRSSRGRDWGLLPLLQPSSPSSLLSATPIPLPLAPFTQLTAALVQVFREALGCHIEQATKRTRSEGGGTGESSQGGTSKRLKVDGQKNCCEEGKEEQQGCAGDGGEDRVEEMVIEVGEMVQDWAMQSPGQPGDLPLTTGKHGAPGEEGQPSHAALAERGPKGHEAAQEWSQGEAGKGASLPSSASWRCALWHRVWQGRRRARRRLQQQTKEGAGGGAGTRAGWLATEAQVTQELKGLSGGEERPETEPLLSFVASVSPADRMLTVTPLQDPQGLFPDLHHFLQVFLPQAIRHLK
notes: Expressed in HEK 293 cells and purified on anti-FLAG M2 resin together with its associated complex; also called Flag tagged Star-PAP; full-length Star-PAP; not shown: FLAG tag

binding result [1]: binds
binding result (Symplekin): binds
B2: Flag-PAPα (canonical poly(A) polymerase) (enzyme)
chain: MPFPVTTQGSQQTQPPQKHYGITSPISLAAPKETDCVLTQKLIETLKPFGVFEEEEELQRRILILGKLNNLVKEWIREISESKNLPQSVIENVGGKIFTFGSYRLGVHTKGADIDALCVAPRHVDRSDFFTSFYDKLKLQEEVKDLRAVEEAFVPVIKLCFDGIEIDILFARLALQTIPEDLDLRDDSLLKNLDIRCIRSLNGCRVTDEILHLVPNIDNFRLTLRAIKLWAKRHNIYSNILGFLGGVSWAMLVARTCQLYPNAIASTLVHKFFLVFSKWEWPNPVLLKQPEECNLNLPVWDPRVNPSDRYHLMPIITPAYPQQNSTYNVSVSTRMVMVEEFKQGLAITDEILLSKAEWSKLFEAPNFFQKYKHYIVLLASAPTEKQRLEWVGLVESKIRILVGSLEKNEFITLAHVNPQSFPAPKENPDKEEFRTMWVIGLVFKKTENSENLSVDLTYDIQSFTDTVYRQAINSKMFEVDMKIAAMHVKRKQLHQLLPNHVLQKKKKHSTEGVKLTALNDSSLDLSMDSDNSMSVPSPTSATKTSPLNSSGSSQGRNSPAPAVTAASVTNIQATEVSVPQVNSSESSGGTSSESIPQTATQPAISPPPKPTVSRVVSSTRLVNPPPRSSGNAATSGNAATKIPTPIVGVKRTSSPHKEESPKKTKTEEDETSEDANCLALSGHDKTEAKEQLDTETSTTQSETIQTAASLLASQKTSSTDLSDIPALPANPIPVIKNSIKLRLNR
notes: not shown: FLAG tag
